Here are results for seven molecules from patent publication US20210147531A1 (AstraZeneca / MedImmune, published 2021).

For orientation: Kd means the equilibrium constant for the complex coming apart. A lower Kd goes with a tighter complex. What is called EC50 is the concentration that produces a half-maximal response. Read a high EC50 as weaker potency. Broadly, the EC50 (read off the curve) is the concentration giving half of the maximal effect. High values mean lower potency in that assay, low ones higher potency in that assay.

Where “and” joins values, the source holds several entries; their conditions need not be identical. Identical values can stand only once. Some results are limits rather than exact numbers.

Experiment [1] has as its target T1, human VEGF165 (human, UniProt P15692-4 27-191).
T1 construct: the isoform is VEGF165; also called huVEGF; recombinant VEGF165
Briefly: capture ELISA, Fab on anti-Fd, biotinylated VEGF165. As to the method: (§1) Briefly, this capture ELISA involved coating individual wells of a 96-well Maxisorp Immunoplate with approximately 50 ng of a sheep anti-human Fd antibody (Biodesign International, ME) in a carbonate buffer at pH 8.5 overnight at 4° C. The next day, the plate was blocked with 3% BSA in PBS buffer for 1 hour at room temperature. Fab supernatant was then added to the plate and incubated at room temperature for 1 hour. After washing, the biotinylated VEGF165 protein was added to the well and the mixture was incubated for 1.5 hours at room temperature. This was followed by incubation with neutravidin-horseradish peroxydase (HRP) conjugate (Pierce, Ill.) for approximately 40 minutes at room temperature. HRP activity was detected with tetra-methyl-benzidine (TMB) substrate and the reaction quenched with 0.2 M H2SO4. Plates were read at 450 nm.
(§2) The Fab concentration was determined by comparing the ELISA signals with the signals generated by the reference Fab.
(In general: An ELISA detects its analyte on a solid surface through an enzyme-linked reagent.)

Experiment [2] deals with T1, human VEGF165. Briefly: KinExA, IgG in solution, huVEGF165-coated beads. The protocol:
Coated beads were then separated (spin) from unreacted huVEGF protein solution, and blocked with 1M Tris, pH 8, containing BSA at 10 mg/mL), for approximately 15 minutes at room temperature. After this, the bead slurry was spun to remove the blocking solution, and then the block step was repeated for approximately 2 hours using fresh block buffer, and stored at 4° C. until used. Prior to use, the huVEGF-coated beads were transferred to a bead vial, resuspended in approximately 27 mLs of instrument buffer (10 mM HEPES+300 mM NaCl+5 mM CaCl₂+0.05% P20+0.02% NaN₃, pH8), and affixed to the KinExA instrument. […] These concentrations of mAbs were chosen to allow each KD measurement to be made under both receptor- and KD-controlled conditions, leading to more rigorous estimations of reagent activity and affinity, respectively. […] Two-fold serial dilutions of huVEGF protein were then titrated across 9 of the tubes in each mAb series, followed by two additional 10-fold-dilutions, leaving one tube as the mAb-only, “zero” control. […] Based on theory curve simulations available through the vendor software (Sapidyne Instruments, Boise, Idaho), the mixtures were incubated 1-4 days at room temperature to allow binding to reach equilibrium. At the end of this time, signal-testing experiments were conducted to determine the appropriate run conditions for each set of measurements.

Experiment [3] deals with T2, mouse VEGF164 (mouse, UniProt Q00731-2 27-190).
T2 construct: also called mVEGF164; murine VEGF164
T2 sequence (looked up): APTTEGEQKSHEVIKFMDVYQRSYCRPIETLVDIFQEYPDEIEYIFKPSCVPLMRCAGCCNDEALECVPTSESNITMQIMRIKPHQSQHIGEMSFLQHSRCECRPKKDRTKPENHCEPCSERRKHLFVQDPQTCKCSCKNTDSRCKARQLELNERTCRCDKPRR
Briefly: ELISA on murine VEGF164 (Example 7), O.D. 450 nm against antibody concentration, 4-parameter fit. As to the method:
(§3) EC50 values were determined using non-linear regression analysis (log dose response, 4-parameter fit curves) in GraphPad Prism, version 5.01 (San Diego, Calif.).

The target in a further experiment is T3, human VEGF121 (human, UniProt P15692-9 27-147).
T3 construct: the isoform is VEGF121
T3 sequence (looked up): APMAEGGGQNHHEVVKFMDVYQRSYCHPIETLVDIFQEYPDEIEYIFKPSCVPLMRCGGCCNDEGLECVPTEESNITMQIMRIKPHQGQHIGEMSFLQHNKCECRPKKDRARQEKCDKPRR
Briefly: ELISA on human VEGF121 (Example 8), OD 450 nm against antibody concentration, 4-parameter fit. The protocol:
as §3

Experiment [4] has as its target T1, human VEGF165. Briefly: VEGF165 ELISA of purified IgGs, OD450 against ug/ml.
The target in experiment [5] is T1, human VEGF165. Briefly: ELISA of Fabs at normalised concentrations on VEGF165 (Example 5), OD450 against Fab ug/ml. The protocol: as §1, §2
Experiment [6] deals with T1, human VEGF165. Briefly: ELISA, coated VEGF, IgG, anti-human-Fc-HRP. As to the method:
(§4) The 96-well microtiter plates (Corning) were coated with 50 μl/well of human and mouse VEGF165 or VEGF121 at a concentration of 5 μg/ml in PBS at 4° C. overnight. After being washed three times with PBS containing 0.1% Tween-20 (PBST), the wells were blocked with blocking buffer (4% skimmed milk in PBS). After 1 h incubation at room temperature, the plates were washed with PBST and a 2-fold serial dilution of the antibodies (starting from 8 nM) in blocking buffer were added and incubated for 1 hour at room temperature. The antibody solution was removed by washing with PBST followed by 1 hour incubation at room temperature with a 1:3000 dilution of an anti-human-Fc-HRP antibody (Thermo Scientific) prepared in PBST. Binding was visualized with the addition of 50 μL of SureBlue Reserve TMB substrate (KPL) for 5 minutes at room temperature and the reaction was stopped by adding 50 μL of TMB Stop Solution (KPL). The absorbance at 450 nm was measured using a microtiter plate reader. The data were analyzed using Prism 5 software (GraphPad).

Experiment [7] deals with T2, mouse VEGF164. Briefly: ELISA, coated VEGF, IgG, anti-human-Fc-HRP. The protocol:
as §4

B1: D04 Fab (Fab, V domains shown)
VH: EVQLLESGGGLVQPGGSLRLSCAASGFTFSWYEMYWVRQAPGKGLEWVSSISPSGGWTMYADSVKGRFTISRDNSKNTLYLQMNSLRAEDTAVYYCATPLYSSDGLSAGDIWGQGTMVTVSS
VL: EIVLTQSPATLSLSPGERATLSCRASQSVHSSYLAWYQQKPGQAPRLLIYGASSRATGIPDRFSGSGSGTDFTLTISRLEPEDFAVYYCQQSYSTPSFGQGTRLEIT
notes: Point mutant of M4 tested as Fab; Fab constant parts not specified
For B1, the “fold improvement in EC50 compared to germline E06 as Fabs” value (from here on “fold improvement in EC50”) in the experiment with human VEGF165 [1] was > 10 fold.

B2: J05 IgG (antibody, V domains shown)
VH: EVQLLESGGGLVQPGGSLRLSCAASGFTFSWYEMYWVRQAPGKGLEWVSSISPSGGWTMYADSVKGRFTISRDNSKNTLYLQMNSLRAEDTAVYYCATPLYSSDGLSAGDIWGQGTMVTVSS
VL: EIVLTQSPATLSLSPGERATLSCRASQSVSSSYLAWYQQKPGQAPRLLIYGASSRATGIPDRFSGSGSGTDFTLTISRLEPEDFAVYYCQQSYRTPSFGQGTRLEITR
Turning to B2, the “FoldΔ KD vs. EO6-wt” value with human VEGF165 [2] was determined as 11 fold. In the experiment with human VEGF165 [2], this molecule displayed a Kd of 0.22 nM. In addition, the EC50 in the experiment with mouse VEGF164 [3] was 0.046 nM; with human VEGF121, 4.97 nM.

B3: J05 Fab (Fab, V domains shown)
VH: EVQLLESGGGLVQPGGSLRLSCAASGFTFSWYEMYWVRQAPGKGLEWVSSISPSGGWTMYADSVKGRFTISRDNSKNTLYLQMNSLRAEDTAVYYCATPLYSSDGLSAGDIWGQGTMVTVSS
VL: EIVLTQSPATLSLSPGERATLSCRASQSVSSSYLAWYQQKPGQAPRLLIYGASSRATGIPDRFSGSGSGTDFTLTISRLEPEDFAVYYCQQSYRTPSFGQGTRLEIT
notes: Point mutant (VL S94R) of M4 tested as Fab; Fab constant parts not specified; also called point mutant J05
For B3, in the experiment with human VEGF165 [1], the “fold improvement in EC50” value was > 10 fold and the “fold improvement of binding over E06” value is ~25 fold.

B4: H1DR IgG (antibody, V domains shown)
VH: EVQLLESGGGLVQPGGSLRLSCAASGFTFSWYEMYWVRQAPGKGLEWVSSISPSGGWTMYADSVKGRFTISRDNSKNTLYLQMNSLRAEDTAVYYCATPLYSSDGLSAGDIWGQGTMVTVSS
VL: EIVLTQSPATLSLSPGERATLSCRASQSVHSSYLAWYQQKPGQAPRLLIYGASSRATGIPDRFSGSGSGTDFTLTISRLEPEDFAVYYCQQDYRTPSFGQGTRLEITR
As for B4, the results for the EC50 with mouse VEGF164 [3] and with human VEGF121 were 0.043 nM and 0.017 nM, respectively. Besides, in the experiment with human VEGF165 [4], the “EC50 (read off the curve)” value is ~0.1 µg/mL.

B5: E06 germline M4 Fab (Fab, V domains shown)
VH: EVQLLESGGGLVQPGGSLRLSCAASGFTFSWYEMYWVRQAPGKGLEWVSSISPSGGWTMYADSVKGRFTISRDNSKNTLYLQMNSLRAEDTAVYYCATPLYSSDGLSAGDIWGQGTMVTVSS
VL: EIVLTQSPATLSLSPGERATLSCRASQSVSSSYLAWYQQKPGQAPRLLIYGASSRATGIPDRFSGSGSGTDFTLTISRLEPEDFAVYYCQQSYSTPSFGQGTRLEIT
notes: Fab; D1E/Q3V/M4L/T86V in the VL against E06; Fab constant parts not specified; also called germline clone M4; germline E06
Turning to B5, the binding result in the experiment with human VEGF165 [5] was “binds”.

B6: I20 Fab (Fab, V domains shown)
VH: EVQLLESGGGLVQPGGSLRLSCAASGFTFSWYEMYWVRQAPGKGLEWVSSISPSGGWTMYADSVKGRFTISRDNSKNTLYLQMNSLRAEDTAVYYCATPLYSSDGLSAGDIWGQGTMVTVSS
VL: EIVLTQSPATLSLSPGERATLSCRASQSVSSSYLAWYQQKPGQAPRLLIYGASSRATGIPDRFSGSGSGTDFTLTISRLEPEDFAVYYCQQDYSTPSFGQGTRLEIT
notes: as for B1
As for B6, the “fold improvement in EC50” value with human VEGF165 [1] was > 10 fold.

B7: E06 full length IgG (antibody, V domains shown)
VH: EVQLLESGGGLVQPGGSLRLSCAASGFTFSWYEMYWVRQAPGKGLEWVSSISPSGGWTMYADSVKGRFTISRDNSKNTLYLQMNSLRAEDTAVYYCATPLYSSDGLSAGDIWGQGTMVTVSS
VL: DIQMTQSPATLSLSPGERATLSCRASQSVSSSYLAWYQQKPGQAPRLLIYGASSRATGIPDRFSGSGSGTDFTLTISRLEPEDFATYYCQQSYSTPSFGQGTRLEITR
notes: also called antibody E06; Wt (E06)
B7: the Kd with human VEGF165 [2] is 2.52 nM. For the same molecule, the figures for the concentration giving a half-maximal response (EC50) with mouse VEGF164 [3], with human VEGF165 [6] and in the experiment with mouse VEGF164 [7] were 0.03 nM, 0.048 nM and 0.049 nM, respectively. Further, in the experiment with human VEGF165 [4], the “EC50 (read off the curve)” value was ~0.07 µg/mL and ~0.06 µg/mL.
